Test results reported in the supplement of paper PMC10724198.
± gives the standard deviation of the averaged measurements.

System: Saccharomyces cerevisiae
Assay: protein stability index of tFT-peptide fusion (C-terminal peptide) (PSI (0-1 scale)); higher = more stable (slower turnover)
Conditions: genetic background: wild type; temperature: 30 C
Description: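 Multiplexed protein stability (MPS) profiling in S. cerevisiae. Random 12-aa peptides (tFT-X12 library) are fused to the C-terminus of a sfGFP-mCherry tandem fluorescent timer, after mCherry and a GGGS linker. Cells are FACS-sorted into 8 mCherry/sfGFP bins and deep-sequenced. The protein stability index (PSI) is the read-weighted bin average, scaled from 0 (unstable) to 1 (stable). Only peptides with >10 reads are reported; cells were grown at 30 °C in SC-His with glucose.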
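Also: PSI is a weighted mean of sequencing reads over stability bins, variants kept only with over 10 reads, mCherry proximal and sfGFP distal, peptide attached via GGGS linker.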

## TRDTEKTGRREP
  protein stability index: 0.715 ± 0.0013

## PQTPQTSTQAPG
  protein stability index: 0.673 ± 0.01

## LPPVPRAYFSDT
  protein stability index: 0.714 ± 0.061

## GDQTLVSSRQSG
  protein stability index: 0.6603 ± 0.002

## PPLPPLCRPLPP
  protein stability index: 0.685 ± 0.1

## RVGYVPNFFCVL
  protein stability index: 0.6254 ± 0.0038

## EAYRVTYPYMYP
  protein stability index: 0.726 ± 0.0086

## GYLGEIHLHYVQ
  protein stability index: 0.708 ± 0.048

## ELRSVLDRDVRV
  protein stability index: 0.725 ± 0.049

## EGEERGEGQVRA
  protein stability index: 0.675 ± 0.0068

## WGEGSGRVWEIS
  protein stability index: 0.679 ± 0.019

## SPPPASDHPNPL
  protein stability index: 0.648 ± 0.063

## PRSLPLDHPAPC
  protein stability index: 0.709 ± 0.085

## ITSWCNVFLGRA
  protein stability index: 0.71 ± 0.018

## RLPPPSPPVPLL
  protein stability index: 0.695 ± 0.0081

## IDQTSKRCKRAC
  protein stability index: 0.672 ± 0.018

## WGLCWFGCLWGR
  protein stability index: 0.692 ± 0.033

## TPPPSLPPPPPP
  protein stability index: 0.627 ± 0.07

## KDGGRLRVDQWI
  protein stability index: 0.706 ± 0.076

## SRPRPPPTPALP
  protein stability index: 0.679 ± 0.0056

## GGWWGRAGENTR
  protein stability index: 0.729 ± 0.075

## PLSLPPPSPRPP
  protein stability index: 0.657 ± 0.013

## STRLFTHPRFLP
  protein stability index: 0.68 ± 0.013

## GLCRRLDRQLAN
  protein stability index: 0.6787 ± 0.0026

## VYNLHRGLFLSL
  protein stability index: 0.512 ± 0.0097

## VEVRRMCSGQLG
  protein stability index: 0.7136 ± 0.00096

## LPSGLTSPPRSS
  protein stability index: 0.712 ± 0.031

## GLVVCDGGGVGC
  protein stability index: 0.684 ± 0.14

## SPSPSSLPPPLR
  protein stability index: 0.726 ± 0.052

## ENLRKLGIALWG
  protein stability index: 0.682 ± 0.14

## RTGGIVATRASE
  protein stability index: 0.779 ± 0.13

## GGGGRGGVVRSG
  protein stability index: 0.634 ± 0.095

## WIGHALPSSNSH
  protein stability index: 0.675 ± 0.056

## PPHPPPPSPALL
  protein stability index: 0.74 ± 0.01

## PNFPEPSLTDAL
  protein stability index: 0.716 ± 0.04

## LGVNYWIYSPHG
  protein stability index: 0.689 ± 0.01

## WGGVRRVRVGGQ
  protein stability index: 0.723 ± 0.053

## VKWAIWGGMEWR
  protein stability index: 0.667 ± 0.07

## KKRHYSCYKNTN
  protein stability index: 0.725 ± 0.015

## GGLLGAGGGCGV
  protein stability index: 0.681 ± 0.046

## RLGGLLCSPLVD
  protein stability index: 0.705 ± 0.097

## STYIMTFTSWEP
  protein stability index: 0.68 ± 0.0078

## LFPRCPPPPLTT
  protein stability index: 0.653 ± 0.053

## VPPLVPLHPPPP
  protein stability index: 0.709 ± 0.047

## ALALCLVFFFSI
  protein stability index: 0.574 ± 0.065

## RCPPLWNPLSPL
  protein stability index: 0.697 ± 0.034

## PPRQPLSLLLPL
  protein stability index: 0.6468 ± 0.0016

## ALAYSLQRSPRV
  protein stability index: 0.616 ± 0.045

## GFSGLRGFWSGM
  protein stability index: 0.713 ± 0.04

## VKGKLGSGSYIH
  protein stability index: 0.644 ± 0.022

## PPSALPHPPLPP
  protein stability index: 0.718 ± 0.028

## DVLASSSVWFLI
  protein stability index: 0.624 ± 0.0057

## RSQRRWCSKIRV
  protein stability index: 0.625 ± 0.095

## TEEVRVRVQTEL
  protein stability index: 0.663 ± 0.035

## SLSTLVFSFCVL
  protein stability index: 0.517 ± 0.03

## PYSSVPLAPPRP
  protein stability index: 0.736 ± 0.043

## GASSSPAQGCSL
  protein stability index: 0.691 ± 0.048

## RRAAYARVFCRI
  protein stability index: 0.641 ± 0.046

## VGLAVWAAKLGR
  protein stability index: 0.739 ± 0.018

## GSNQRRKGEHKP
  protein stability index: 0.623 ± 0.036

## GIFRTRGFPPVG
  protein stability index: 0.694 ± 0.088

## YKNKRSNKRKHK
  protein stability index: 0.702 ± 0.0098

## LPGCPPADRPLV
  protein stability index: 0.688 ± 0.13

## ALLFCVCCGFFF
  protein stability index: 0.541 ± 0.013

## KPRLARLSLSLL
  protein stability index: 0.784 ± 0.14

## VAGAGAGREAAY
  protein stability index: 0.616 ± 0.026

## VVVSDFRSCNMS
  protein stability index: 0.736 ± 0.043

## PFIDCEHIRGFN
  protein stability index: 0.735 ± 0.046

## PLRTRESIGARG
  protein stability index: 0.707 ± 0.038

## EWCVRKATRDIE
  protein stability index: 0.659 ± 0.014

## RRARSAGADPRP
  protein stability index: 0.684 ± 0.02

## PPPPPPPPHLLP
  protein stability index: 0.658 ± 0.027

## PPVSPPSPRLPL
  protein stability index: 0.7329 ± 0.0049

## SLLLRVLCGRLS
  protein stability index: 0.5104 ± 0.0037

## FGFHSLSISFFM
  protein stability index: 0.611 ± 0.035

## KSAGNWSKGKRE
  protein stability index: 0.713 ± 0.083

## FPSSPPAHAAPH
  protein stability index: 0.68 ± 0.019

## RTAGSARIESAL
  protein stability index: 0.645 ± 0.017

## PVSCMAWGRLVL
  protein stability index: 0.667 ± 0.041

## AFSLRGRSVMFY
  protein stability index: 0.688 ± 0.025

## FFGGAGGTEGLG
  protein stability index: 0.689 ± 0.048
